Residues, ends and D or L forms follow the SMILES beside them.
Legend:
CaV2.2 = molecular target: T1, CaV2.2 (Rattus norvegicus, UniProt Q02294); experiment: Peptide spot array far-Western: CaV2.2 binding to 15-mer CRMP-2 peptides; settings: 15-mer peptide #96 overlaid with spinal cord lysates / rat brain synaptosomes
T1 construct: incubated with a purified synaptosome fraction enriched in Ca^2+ channels; from tissue; host or cells: P1 neonatal rat brain synaptosomes, enriched on WGA-Sepharose and heparin-agarose
T1 sequence (Q02294 whole entry): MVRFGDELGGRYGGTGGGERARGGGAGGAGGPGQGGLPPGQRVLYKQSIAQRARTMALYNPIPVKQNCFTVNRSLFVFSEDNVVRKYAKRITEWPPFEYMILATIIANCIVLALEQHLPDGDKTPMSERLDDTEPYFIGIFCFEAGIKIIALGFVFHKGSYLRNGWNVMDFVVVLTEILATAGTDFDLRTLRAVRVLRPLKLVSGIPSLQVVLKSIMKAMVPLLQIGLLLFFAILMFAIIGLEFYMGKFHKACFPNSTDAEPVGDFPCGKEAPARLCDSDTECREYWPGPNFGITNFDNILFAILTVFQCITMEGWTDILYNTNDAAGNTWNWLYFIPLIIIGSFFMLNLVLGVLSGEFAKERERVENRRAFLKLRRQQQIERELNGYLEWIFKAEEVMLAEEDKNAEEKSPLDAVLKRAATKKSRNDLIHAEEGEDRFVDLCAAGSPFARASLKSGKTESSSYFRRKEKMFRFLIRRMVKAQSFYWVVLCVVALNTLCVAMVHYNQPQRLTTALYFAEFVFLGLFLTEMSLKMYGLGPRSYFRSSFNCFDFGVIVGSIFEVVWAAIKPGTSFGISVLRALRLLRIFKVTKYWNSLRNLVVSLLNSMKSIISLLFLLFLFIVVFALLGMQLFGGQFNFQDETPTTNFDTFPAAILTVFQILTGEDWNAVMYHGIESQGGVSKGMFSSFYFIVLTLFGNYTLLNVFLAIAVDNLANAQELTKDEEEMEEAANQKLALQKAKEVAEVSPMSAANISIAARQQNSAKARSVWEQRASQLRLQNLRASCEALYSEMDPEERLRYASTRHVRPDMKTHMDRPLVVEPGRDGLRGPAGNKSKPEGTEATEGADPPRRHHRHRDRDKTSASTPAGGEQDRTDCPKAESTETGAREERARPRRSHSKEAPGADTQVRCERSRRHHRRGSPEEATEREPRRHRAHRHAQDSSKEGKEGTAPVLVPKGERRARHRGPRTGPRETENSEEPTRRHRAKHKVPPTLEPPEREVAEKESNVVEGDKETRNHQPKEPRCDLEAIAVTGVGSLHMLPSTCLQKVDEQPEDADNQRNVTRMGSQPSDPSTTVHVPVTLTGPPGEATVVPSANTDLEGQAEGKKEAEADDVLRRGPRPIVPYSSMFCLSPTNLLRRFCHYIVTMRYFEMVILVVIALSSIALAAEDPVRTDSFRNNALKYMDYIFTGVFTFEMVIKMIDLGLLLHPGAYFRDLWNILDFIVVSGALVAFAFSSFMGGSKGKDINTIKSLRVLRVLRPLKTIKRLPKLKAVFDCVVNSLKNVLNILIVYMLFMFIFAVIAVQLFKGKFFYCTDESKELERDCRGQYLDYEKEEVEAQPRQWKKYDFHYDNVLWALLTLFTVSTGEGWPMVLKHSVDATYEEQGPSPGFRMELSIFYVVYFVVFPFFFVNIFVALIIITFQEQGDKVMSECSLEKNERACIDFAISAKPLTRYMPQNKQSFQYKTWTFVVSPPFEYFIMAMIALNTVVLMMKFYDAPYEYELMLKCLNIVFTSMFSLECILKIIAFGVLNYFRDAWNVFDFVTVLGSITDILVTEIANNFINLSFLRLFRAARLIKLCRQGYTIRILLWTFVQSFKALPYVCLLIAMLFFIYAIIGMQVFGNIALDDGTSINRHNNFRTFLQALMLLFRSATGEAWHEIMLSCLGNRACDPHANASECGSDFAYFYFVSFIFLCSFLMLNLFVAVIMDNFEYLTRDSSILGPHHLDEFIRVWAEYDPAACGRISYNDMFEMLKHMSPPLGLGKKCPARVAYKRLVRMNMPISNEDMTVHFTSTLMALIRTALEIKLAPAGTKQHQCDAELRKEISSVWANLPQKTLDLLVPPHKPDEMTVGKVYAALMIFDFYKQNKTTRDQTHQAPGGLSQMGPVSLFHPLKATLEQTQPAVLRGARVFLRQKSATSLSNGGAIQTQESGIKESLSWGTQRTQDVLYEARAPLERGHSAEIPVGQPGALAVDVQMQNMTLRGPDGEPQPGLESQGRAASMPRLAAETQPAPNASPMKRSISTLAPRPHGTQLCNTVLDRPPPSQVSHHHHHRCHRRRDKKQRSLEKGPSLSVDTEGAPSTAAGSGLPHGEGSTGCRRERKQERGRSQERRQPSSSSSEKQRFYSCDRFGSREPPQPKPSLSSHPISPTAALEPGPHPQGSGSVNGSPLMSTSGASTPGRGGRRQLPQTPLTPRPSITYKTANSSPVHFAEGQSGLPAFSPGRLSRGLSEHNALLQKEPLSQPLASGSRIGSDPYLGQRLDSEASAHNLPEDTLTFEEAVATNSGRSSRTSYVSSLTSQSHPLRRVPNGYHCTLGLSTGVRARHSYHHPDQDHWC
Experimental: Purification/Enrichment of Ca^2+ channels from synaptosomes. In order to prepare a rich source of CaV2.2 for the far-Western analyses (see below), synaptosomes from P1 neonatal rat brains were solubilized with digitonin and enriched by chromatography on WGA-Sepharose as described previously. Briefly, 30 PN1 neonatal rat brains were homogenized in 180 ml of 320 mM sucrose with a glass-Teflon homogenizer. After a short centrifugation (5000 rpm, 2 min), the supernatant (SN) was centrifuged (42,000 rpm, 60 min). The membranes were solubilized with 1.2% digitonin, 80 mM sodium phosphate buffer, pH 7.4 for 20 min. Unsolubilized material was removed by the centrifugation as before, and the supernatant (S3) was poured over a 40 ml WGA-Sepharose column (50 ml/h). After incubation for 1 hr at 4° C., the column was washed with 10 column volumes of 0.1% digitonin, 75 mM NaCl, 50 mM sodium phosphate, 10 mM Tris-HCl (pH 7.4) at a flow rate of 50 ml/hr. The glycoproteins bound to the WGA-Sepharose column were eluted with 100 mM N-acetyl-D-glucosamine (Sigma, St. Louis, Mo.) in the same buffer at a flow rate of 50 ml/hr. Three milliliter fractions were collected and the protein concentration of each fraction was determined by BCA protein assay kit (Thermo Fisher Scientific, Shelbyville, Ind.). […]

[1] = molecular target: CaV2.2 current density in hippocampal neurons (Rattus norvegicus, UniProt Q02294); experiment: Whole-cell patch-clamp Ca2+ currents in hippocampal neurons; type: cell-based; settings: co-expression with CRMP-2 in hippocampal neurons; +10 mV
Chain of CaV2.2 current density in hippocampal neurons (Q02294 whole entry): as above
Chain of CaV2.2 current density in hippocampal neurons (P54287 whole entry partner): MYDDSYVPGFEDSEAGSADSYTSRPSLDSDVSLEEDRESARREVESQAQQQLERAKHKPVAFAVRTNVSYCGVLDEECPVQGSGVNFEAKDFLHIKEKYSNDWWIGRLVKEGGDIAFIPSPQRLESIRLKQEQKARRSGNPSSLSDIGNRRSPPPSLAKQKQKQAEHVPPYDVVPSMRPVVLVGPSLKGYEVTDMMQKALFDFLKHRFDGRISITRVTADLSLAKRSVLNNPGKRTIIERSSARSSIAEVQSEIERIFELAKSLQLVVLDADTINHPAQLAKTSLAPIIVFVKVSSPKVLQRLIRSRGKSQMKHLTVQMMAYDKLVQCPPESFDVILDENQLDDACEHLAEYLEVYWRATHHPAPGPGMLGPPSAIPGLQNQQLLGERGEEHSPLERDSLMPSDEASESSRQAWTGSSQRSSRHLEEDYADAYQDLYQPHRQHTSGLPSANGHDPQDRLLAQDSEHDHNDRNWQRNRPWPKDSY
Chain of CaV2.2 current density in hippocampal neurons (P54290 25-944 partner limits assumed): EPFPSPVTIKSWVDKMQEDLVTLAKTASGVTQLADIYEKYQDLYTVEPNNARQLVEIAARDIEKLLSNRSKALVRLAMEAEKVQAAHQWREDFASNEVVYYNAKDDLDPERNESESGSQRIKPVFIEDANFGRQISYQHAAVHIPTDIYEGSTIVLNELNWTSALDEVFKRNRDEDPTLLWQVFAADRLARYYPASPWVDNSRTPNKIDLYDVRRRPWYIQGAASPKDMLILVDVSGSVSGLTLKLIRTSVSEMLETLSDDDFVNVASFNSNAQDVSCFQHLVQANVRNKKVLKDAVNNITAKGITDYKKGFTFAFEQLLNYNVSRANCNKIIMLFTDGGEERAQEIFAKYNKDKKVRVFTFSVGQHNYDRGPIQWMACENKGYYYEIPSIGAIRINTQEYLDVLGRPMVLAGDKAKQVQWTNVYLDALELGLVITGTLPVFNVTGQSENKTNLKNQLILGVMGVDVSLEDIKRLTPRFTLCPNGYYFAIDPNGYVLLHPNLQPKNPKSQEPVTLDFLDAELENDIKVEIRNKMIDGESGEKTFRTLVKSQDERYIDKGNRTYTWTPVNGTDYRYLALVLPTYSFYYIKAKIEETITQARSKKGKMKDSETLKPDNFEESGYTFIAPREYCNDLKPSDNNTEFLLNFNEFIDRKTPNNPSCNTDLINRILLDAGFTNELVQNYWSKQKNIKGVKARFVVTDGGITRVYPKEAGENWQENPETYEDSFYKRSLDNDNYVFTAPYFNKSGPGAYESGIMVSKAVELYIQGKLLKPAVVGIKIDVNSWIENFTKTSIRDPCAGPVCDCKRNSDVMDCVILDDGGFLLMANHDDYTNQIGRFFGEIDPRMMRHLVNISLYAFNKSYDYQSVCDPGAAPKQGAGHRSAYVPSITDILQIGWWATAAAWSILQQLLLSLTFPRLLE
Chain of CaV2.2 current density in hippocampal neurons (P54290 945-1091 partner limits assumed): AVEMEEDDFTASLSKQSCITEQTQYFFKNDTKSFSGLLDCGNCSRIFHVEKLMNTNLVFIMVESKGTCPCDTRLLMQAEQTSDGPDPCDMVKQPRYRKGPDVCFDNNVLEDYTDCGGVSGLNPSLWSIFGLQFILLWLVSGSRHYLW

[2] = tested on: capsaicin-evoked nocifensive behavior; experiment: Capsaicin eye-wipe test; type: in vivo, rat; settings: peptide alone
Experimental: Referring now to FIG. 16. TAT-CBD3 reduces acute, inflammatory and neuropathic pain. (FIG. 16A) Time course of number of flinches following subcutaneous (dorsal surface of paw) injection of formalin (2.5%; 50 μl saline) in animals pretreated with peptides (3-100 μM; 20 μl dorsal surface of paw) 30 min before formalin (n=4-10). (FIG. 16B) The effect of peptides on number of flinches on formalin-induced phase 1 (0-10 min) and phase 2 (15-60 min). *, p<0.05 versus formalin-injected animals. (FIG. 16C) Formalin induces paw edema. Paw thickness was measured 1 h after injection of saline, formalin, and formalin+peptides (100 μM). *, p<0.05 versus saline-injected animals. (FIG. 16D) Pretreatment with TAT-CBD3 attenuates capsaicin-evoked nocifensive behavior. […]
Eye-wipe test. […] TAT CBD3 peptide, TAT control peptide or vehicle was pipetted directly into the right eye in a volume of 40 μl and the resulting nocifensive behavior was measured. […] This nocifensive behavior was recorded for five minutes and followed by capsaicin (3 μM in 40 μl saline) application into the pretreated eye. Nocifensive behavior was again quantified for 5 minutes following capsaicin application, as described previously. […] Significant differences between groups were assessed by two-way analysis of variance with Bonferroni post-tests. Data were analyzed with GraphPad Prism 4.0 (GraphPad, San Diego, Calif., USA). […]

Molecule	binding to CaV2.2 (CaV2.2)	CRMP-2-mediated increase in CaV2.2 current density [1]	nocifensive behavior on application alone to the cornea [2]
ARSRLAELRGVPRGL (CBD3)	bound to the CaV2.2	eliminated	
CC(C)C[C@H](NC(=O)CNC(=O)[C@H](CCCNC(=N)N)NC(=O)[C@@H]1CCCN1C(=O)[C@@H](NC(=O)CNC(=O)[C@H](CCCNC(=N)N)NC(=O)[C@H](CC(C)C)NC(=O)[C@H](CCC(=O)O)NC(=O)[C@H](C)NC(=O)[C@H](CC(C)C)NC(=O)[C@H](CCCNC(=N)N)NC(=O)[C@H](CO)NC(=O)[C@H](CCCNC(=N)N)NC(=O)[C@H](C)NC(=O)[C@H](CCCNC(=N)N)NC(=O)[C@H](CCCNC(=N)N)NC(=O)[C@H](CCCNC(=N)N)NC(=O)[C@H](CCC(N)=O)NC(=O)[C@H](CCCNC(=N)N)NC(=O)[C@H](CCCNC(=N)N)NC(=O)[C@H](CCCCN)NC(=O)[C@H](CCCCN)NC(=O)[C@H](CCCNC(=N)N)NC(=O)CNC(=O)[C@@H](N)Cc1ccc(O)cc1)C(C)C)C(=O)O [TAT-CBD3] (H-YGRKKRRQRRRARSRLAELRGVPRGL-OH; N-terminus and C-terminus assumed)			did not induce nocifensive behavior

Source: patent US9018173B2, “Materials and methods for suppressing inflammatory and neuropathic pain” (Indiana University Research and Technology Corp., priority 2010, dated 2015)
